This experiment concerns primary fetal endothelial cells (ECs) isolated from rat brains. The experiment is described as follows: Trans-endothelial electrical resistance (TEER) of endothelial cell monolayer after oxygen glucose deprivation (OGD). The format is cell-based.

Method: To assess whether the effects on the BBB integrity are mediated by Annexin A1, we used a recognized model for BBB integrity of primary fetal endothelial cells (ECs) isolated from rat brains at postnatal day 3.
A cellular monolayer of endothelial cells (ECs) was cultured on semipermeable filter inserts (Transwell, 3460 Corning). Trans-endothelial electrical resistance (TEER) was measured as an established quantitative readout for barrier integrity as described before (Srinivasan et al., J. Lab Autom. 2015 (2) 107-126) using an Epithelial Voltohmmeter (EVOM2) with two chopstick electrodes, each containing a silver-silver chloride pellet for measuring voltage and a silver pellet for passing current. Measurements of the resistance in ohm (Ω) across the cell layer were made on the semipermeable membrane by placing one electrode in the upper compartment and the other electrode in the lower compartment. Measurements were performed in duplicate per insert and consistently conducted for several days, 30 minutes after culture media was changed and temperature was kept at 37° C. before and between all measurements. […]
Subsequently TEER was measured in all groups at 1 hour, 3 hours, 6 hours, 12 hours and 24 after normoxia/OGD. […]
At 0 hour, baseline TEER measurements were taken before initiation of OGD. […] TEER in ohms was measured 3 h, 6 h, 12 h and 24 h after treatment. […]

B1: Annexin A1 (protein, UniProt P04083 2-346, looked up)
Annexin A1: AMVSEFLKQAWFIENEEQEYVQTVKSSKGGPGSAVSPYPTFNPSSDVAALHKAIMVKGVDEATIIDILTKRNNAQRQQIKAAYLQETGKPLDETLKKALTGHLEEVVLALLKTPAQFDADELRAAMKGLGTDEDTLIEILASRTNKEIRDINRVYREELKRDLAKDITSDTSGDFRNALLSLAKGDRSEDFGVNEDLADSDARALYEAGERRKGTDVNVFNTILTTRSYPQLRRVFQKYTKYSKHDMNKVLDLELKGDIEKCLTAIVKCATSKPAFFAEKLHQAMKGVGTRHKALIRIMVSRSEIDMNDIKAFYQKMYGISLCQAILDETKGDYEKILVALCGGN
notes: recombinant Annexin A1 protein, preferably of human origin, obtained commercially
Regarding B1, the TEER plateau value (fetal rat brain ECs on Transwell, 4 h OGD then treatment with Annexin A1 3 μM, plateau from 12 h onwards, baseline approx. 150 ohms per insert) was determined as 130 ohms. Also, the “effect on endothelial resistance / barrier integrity following OGD” value (fetal rat brain ECs, 4 h OGD, Annexin A1 3 μM) was “restores the endothelial resistance and/or barrier integrity”.

Source of the values: US20210205409A1, “METHOD FOR THE TREATMENT OF HYPOXIC-ISCHEMIC ENCEPHALOPATHY IN NEWBORNS” (UNIVERSITEIT MAASTRICHT, priority 2018, published 2021).
